Experimental data from patent US20190225650A1, “PEPTIDOMIMETIC MACROCYCLES AND USE THEREOF IN REGULATING HIF1ALPHA” (AILERON THERAPEUTICS, INC., priority 2013, published 2019).
Bridge positions count the residues as written; N and C are the ends. Square brackets hold non-standard residues; d marks the D form. Ala(3-Me-diazirin-3-yl) = CC1(C[C@H](N)C(=O)O)N=N1; S5 = C=CCCC[C@](C)(N)C(=O)O; Nle = CCCC[C@H](N)C(=O)O

B1: SP-103 (peptide)
peptide: Ac-FIDEEVLM[S5]LVI[S5]MAA-NH2
modifications: staple 9-13
SMILES: CC[C@H](C)[C@H](NC(=O)[C@H](Cc1ccccc1)NC(C)=O)C(=O)N[C@@H](CC(=O)O)C(=O)N[C@@H](CCC(=O)O)C(=O)N[C@@H](CCC(=O)O)C(=O)N[C@H](C(=O)N[C@@H](CC(C)C)C(=O)N[C@@H](CCSC)C(=O)N[C@@]1(C)CCCC=CCCC[C@@](C)(C(=O)N[C@@H](CCSC)C(=O)N[C@@H](C)C(=O)N[C@@H](C)C(N)=O)NC(=O)[C@H]([C@@H](C)CC)NC(=O)[C@H](C(C)C)NC(=O)[C@H](CC(C)C)NC1=O)C(C)C
B2: SP-101 (peptide)
peptide: Ac-FIDEEVLM[S5]LVI[S5]MALD-NH2
modifications: staple 9-13
SMILES: CC[C@H](C)[C@H](NC(=O)[C@H](Cc1ccccc1)NC(C)=O)C(=O)N[C@@H](CC(=O)O)C(=O)N[C@@H](CCC(=O)O)C(=O)N[C@@H](CCC(=O)O)C(=O)N[C@H](C(=O)N[C@@H](CC(C)C)C(=O)N[C@@H](CCSC)C(=O)N[C@@]1(C)CCCC=CCCC[C@@](C)(C(=O)N[C@@H](CCSC)C(=O)N[C@@H](C)C(=O)N[C@@H](CC(C)C)C(=O)N[C@@H](CC(=O)O)C(N)=O)NC(=O)[C@H]([C@@H](C)CC)NC(=O)[C@H](C(C)C)NC(=O)[C@H](CC(C)C)NC1=O)C(C)C
B3: SP-98 (peptide)
peptide: Ac-FIDEEVLM[S5]LVI[S5]MGLD-NH2
modifications: staple 9-13
SMILES: CC[C@H](C)[C@H](NC(=O)[C@H](Cc1ccccc1)NC(C)=O)C(=O)N[C@@H](CC(=O)O)C(=O)N[C@@H](CCC(=O)O)C(=O)N[C@@H](CCC(=O)O)C(=O)N[C@H](C(=O)N[C@@H](CC(C)C)C(=O)N[C@@H](CCSC)C(=O)N[C@@]1(C)CCCC=CCCC[C@@](C)(C(=O)N[C@@H](CCSC)C(=O)NCC(=O)N[C@@H](CC(C)C)C(=O)N[C@@H](CC(=O)O)C(N)=O)NC(=O)[C@H]([C@@H](C)CC)NC(=O)[C@H](C(C)C)NC(=O)[C@H](CC(C)C)NC1=O)C(C)C
B4: SP-99 (peptide)
peptide: Ac-FIDEEVLM[S5]LVI[S5]MG-NH2
modifications: staple 9-13
SMILES: CC[C@H](C)[C@H](NC(=O)[C@H](Cc1ccccc1)NC(C)=O)C(=O)N[C@@H](CC(=O)O)C(=O)N[C@@H](CCC(=O)O)C(=O)N[C@@H](CCC(=O)O)C(=O)N[C@H](C(=O)N[C@@H](CC(C)C)C(=O)N[C@@H](CCSC)C(=O)N[C@@]1(C)CCCC=CCCC[C@@](C)(C(=O)N[C@@H](CCSC)C(=O)NCC(N)=O)NC(=O)[C@H]([C@@H](C)CC)NC(=O)[C@H](C(C)C)NC(=O)[C@H](CC(C)C)NC1=O)C(C)C
B5: SP-102 (peptide)
peptide: Ac-FIDEEVLM[S5]LVI[S5]MA-NH2
modifications: staple 9-13
SMILES: CC[C@H](C)[C@H](NC(=O)[C@H](Cc1ccccc1)NC(C)=O)C(=O)N[C@@H](CC(=O)O)C(=O)N[C@@H](CCC(=O)O)C(=O)N[C@@H](CCC(=O)O)C(=O)N[C@H](C(=O)N[C@@H](CC(C)C)C(=O)N[C@@H](CCSC)C(=O)N[C@@]1(C)CCCC=CCCC[C@@](C)(C(=O)N[C@@H](CCSC)C(=O)N[C@@H](C)C(N)=O)NC(=O)[C@H]([C@@H](C)CC)NC(=O)[C@H](C(C)C)NC(=O)[C@H](CC(C)C)NC1=O)C(C)C
B6: SP-77 (peptide)
peptide: Ac-FIDEE[S5]LMS[S5]VIEMGLDRIKELPELWL-NH2
modifications: staple 6-10
SMILES: CC[C@H](C)[C@H](NC(=O)[C@H](Cc1ccccc1)NC(C)=O)C(=O)N[C@@H](CC(=O)O)C(=O)N[C@@H](CCC(=O)O)C(=O)N[C@@H](CCC(=O)O)C(=O)N[C@@]1(C)CCCC=CCCC[C@@](C)(C(=O)N[C@H](C(=O)N[C@H](C(=O)N[C@@H](CCC(=O)O)C(=O)N[C@@H](CCSC)C(=O)NCC(=O)N[C@@H](CC(C)C)C(=O)N[C@@H](CC(=O)O)C(=O)N[C@@H](CCCNC(=N)N)C(=O)N[C@H](C(=O)N[C@@H](CCCCN)C(=O)N[C@@H](CCC(=O)O)C(=O)N[C@@H](CC(C)C)C(=O)N2CCC[C@H]2C(=O)N[C@@H](CCC(=O)O)C(=O)N[C@@H](CC(C)C)C(=O)N[C@@H](Cc2c[nH]c3ccccc23)C(=O)N[C@@H](CC(C)C)C(N)=O)[C@@H](C)CC)[C@@H](C)CC)C(C)C)NC(=O)[C@H](CO)NC(=O)[C@H](CCSC)NC(=O)[C@H](CC(C)C)NC1=O
B7: SP-93 (peptide)
peptide: Ac-FIDEEVLM[S5]LVI[S5]MGLDRIKELP-NH2
modifications: staple 9-13
SMILES: CC[C@H](C)[C@H](NC(=O)[C@H](Cc1ccccc1)NC(C)=O)C(=O)N[C@@H](CC(=O)O)C(=O)N[C@@H](CCC(=O)O)C(=O)N[C@@H](CCC(=O)O)C(=O)N[C@H](C(=O)N[C@@H](CC(C)C)C(=O)N[C@@H](CCSC)C(=O)N[C@@]1(C)CCCC=CCCC[C@@](C)(C(=O)N[C@@H](CCSC)C(=O)NCC(=O)N[C@@H](CC(C)C)C(=O)N[C@@H](CC(=O)O)C(=O)N[C@@H](CCCNC(=N)N)C(=O)N[C@H](C(=O)N[C@@H](CCCCN)C(=O)N[C@@H](CCC(=O)O)C(=O)N[C@@H](CC(C)C)C(=O)N2CCC[C@H]2C(N)=O)[C@@H](C)CC)NC(=O)[C@H]([C@@H](C)CC)NC(=O)[C@H](C(C)C)NC(=O)[C@H](CC(C)C)NC1=O)C(C)C
B8: SP-97 (peptide)
peptide: Ac-FIDEEVLM[S5]LVI[S5]MGLDRI-NH2
modifications: staple 9-13
SMILES: CC[C@H](C)[C@H](NC(=O)[C@H](CCCNC(=N)N)NC(=O)[C@H](CC(=O)O)NC(=O)[C@H](CC(C)C)NC(=O)CNC(=O)[C@H](CCSC)NC(=O)[C@]1(C)CCCC=CCCC[C@](C)(NC(=O)[C@H](CCSC)NC(=O)[C@H](CC(C)C)NC(=O)[C@@H](NC(=O)[C@H](CCC(=O)O)NC(=O)[C@H](CCC(=O)O)NC(=O)[C@H](CC(=O)O)NC(=O)[C@@H](NC(=O)[C@H](Cc2ccccc2)NC(C)=O)[C@@H](C)CC)C(C)C)C(=O)N[C@@H](CC(C)C)C(=O)N[C@@H](C(C)C)C(=O)N[C@@H]([C@@H](C)CC)C(=O)N1)C(N)=O
B9: SP-70 (peptide)
peptide: Ac-FIDEQVLA[S5]LVI[S5]AALDRI-NH2
modifications: staple 9-13
SMILES: CC[C@H](C)[C@H](NC(=O)[C@H](CCCNC(=N)N)NC(=O)[C@H](CC(=O)O)NC(=O)[C@H](CC(C)C)NC(=O)[C@H](C)NC(=O)[C@H](C)NC(=O)[C@]1(C)CCCC=CCCC[C@](C)(NC(=O)[C@H](C)NC(=O)[C@H](CC(C)C)NC(=O)[C@@H](NC(=O)[C@H](CCC(N)=O)NC(=O)[C@H](CCC(=O)O)NC(=O)[C@H](CC(=O)O)NC(=O)[C@@H](NC(=O)[C@H](Cc2ccccc2)NC(C)=O)[C@@H](C)CC)C(C)C)C(=O)N[C@@H](CC(C)C)C(=O)N[C@@H](C(C)C)C(=O)N[C@@H]([C@@H](C)CC)C(=O)N1)C(N)=O
B10: SP-100 (peptide)
peptide: Ac-FIDEEVLM[S5]LVI[S5]MALDRIKE-NH2
modifications: staple 9-13
SMILES: CC[C@H](C)[C@H](NC(=O)[C@H](CCCNC(=N)N)NC(=O)[C@H](CC(=O)O)NC(=O)[C@H](CC(C)C)NC(=O)[C@H](C)NC(=O)[C@H](CCSC)NC(=O)[C@]1(C)CCCC=CCCC[C@](C)(NC(=O)[C@H](CCSC)NC(=O)[C@H](CC(C)C)NC(=O)[C@@H](NC(=O)[C@H](CCC(=O)O)NC(=O)[C@H](CCC(=O)O)NC(=O)[C@H](CC(=O)O)NC(=O)[C@@H](NC(=O)[C@H](Cc2ccccc2)NC(C)=O)[C@@H](C)CC)C(C)C)C(=O)N[C@@H](CC(C)C)C(=O)N[C@@H](C(C)C)C(=O)N[C@@H]([C@@H](C)CC)C(=O)N1)C(=O)N[C@@H](CCCCN)C(=O)N[C@@H](CCC(=O)O)C(N)=O
B11: SP-90 (peptide)
peptide: Ac-FIDEEVLM[S5]LVI[S5]MGLDRIKELPELW-NH2
modifications: staple 9-13
SMILES: CC[C@H](C)[C@H](NC(=O)[C@H](Cc1ccccc1)NC(C)=O)C(=O)N[C@@H](CC(=O)O)C(=O)N[C@@H](CCC(=O)O)C(=O)N[C@@H](CCC(=O)O)C(=O)N[C@H](C(=O)N[C@@H](CC(C)C)C(=O)N[C@@H](CCSC)C(=O)N[C@@]1(C)CCCC=CCCC[C@@](C)(C(=O)N[C@@H](CCSC)C(=O)NCC(=O)N[C@@H](CC(C)C)C(=O)N[C@@H](CC(=O)O)C(=O)N[C@@H](CCCNC(=N)N)C(=O)N[C@H](C(=O)N[C@@H](CCCCN)C(=O)N[C@@H](CCC(=O)O)C(=O)N[C@@H](CC(C)C)C(=O)N2CCC[C@H]2C(=O)N[C@@H](CCC(=O)O)C(=O)N[C@@H](CC(C)C)C(=O)N[C@@H](Cc2c[nH]c3ccccc23)C(N)=O)[C@@H](C)CC)NC(=O)[C@H]([C@@H](C)CC)NC(=O)[C@H](C(C)C)NC(=O)[C@H](CC(C)C)NC1=O)C(C)C

molecular target: T1, His6-tagged p300 (AA 323-423) (UniProt Q09472 323-423); assay: TR-FRET HIF1a/p300 displacement; grade = IC50 >700 nM
T1 construct: range 323-423; also called p300-CH; not shown: His6 tag
T1 sequence (Q09472 323-423 limits assumed): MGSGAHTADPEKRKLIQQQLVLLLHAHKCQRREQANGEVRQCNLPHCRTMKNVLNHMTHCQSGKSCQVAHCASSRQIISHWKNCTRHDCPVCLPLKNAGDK
Summary of the method: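 Peptides competed with HIF1α C-terminal transactivation domain for His6-p300-CH (complex 300 nM final) during 1 h at RT in 20 mM HEPES pH 7.4, 150 mM NaCl, 7.5 mM CHAPS, 1 mM DTT. Anti-Flag-K (0.5 μM) and anti-His-D2 (4 nM) were added for 2 h. IC50 was derived from the TR-FRET ratio by one-site fit.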

IC50, > 700 nM:
B1
B2
B3
B4
B5
B6
Ac-FIDEEV[Ala(3-Me-diazirin-3-yl)][Nle][S5]LVI[S5][Nle]ALDRI-NH2 (staple 9-13) [SP-71]
B7
B8
B9
B10
B11
